Measurements: patent US11192948B2, “Compositions and methods for inhibiting cancer stem cells” (MedImmune Limited, priority 2015, dated 2021)

Experiments:
Cytivia cardiomyocytes = assay: Doxorubicin-mediated cardiomyocyte damage (calcium, viability imaging); type: cell-based
Description: Next, we sought to determine if inhibiting LOX1 could block doxorubicin-mediated cardiomyocyte damage. Cytivia™ cardiomyocytes were purchased from GE Healthcare and plated following manufacturer's instructions with the substitution of bovine fibronectin for human fibronectin. Cells were allowed to adhere for 4 days and then medium was changed. At days 5-7, medium was removed and cells were pre-incubated with the indicated concentration of LX5140110 for 4 hours prior to the addition of 5 μM doxorubicin (DOX). After addition of DOX, cells were incubated for a further 24 hours. After incubation, media was removed and cells were stained with DAPI (1:4000 dilution of 1 mg/mL), TOTO-3 (1 uL of dye solution per 1 mL of medium), and 5 μM Fluo-4. Cells were incubated for 1 hour at 37° C. and then imaged on Image on GE IN Cell Analyzer. Viability was determined by obtaining the number of cells excluding DAPI and TOTO-3 dyes while Fluo-4 was used to determine calcium concentrations. It is known that cardiomyocytes show an increase in calcium load during endotoxin induced cardiac dysfunction. (Thompson et al., Pediatric Research (2000) 47: 669-676).

Pan02.13 cells [1] = assay: Pan02.13 cell growth under standard tissue culture conditions; type: cell-based; conditions: 100 ng/mL; P<0.001
Text: (§1) Given that chemotherapies and even some targeted therapies can enrich for CSCs despite the reductions in tumor burden, combination approaches using a CSC-specific targeted therapy in combination with these agents becomes an attractive approach to treatment of cancer patients. Since LX5140110 targets CSCs specifically, we sought to address the combined effects of the current standard of care chemotherapy for pancreatic cancer, gemcitabine, and LX5140110. First the ability of gemcitabine to inhibit the Pan02.13 was tested. Pan02.13 cells were plated under standard tissue culture conditions with and without 100 ng/mL gemcitabine in a tissue culture coated flat-bottomed plate (n=10). […] To determine the effects of treatments on CSCs, Pan02.13 was treated in standard tissue culture conditions for 4 days with either 50 μg/mL of LX5140110 or a control antibody and with or without 100 ng/mL of gemcitabine (GEM) then analyzed for the percentage of CSCs by flow cytometry. The percentage of CSCs (EpCAM+CD24+CD44+) was determined for each treatment condition. The cells were first gated for single, viable cells using scatter and DAPI. Fluorescence minus one (FMO) controls were utilized for gating, with the EpCAM+population analyzed for CD44 and CD24 expression.

Pan02.13 cells [2] = assay: Percentage of CSCs (EpCAM+CD24+CD44+) in Pan02.13 by flow cytometry; type: cell-based; conditions: 4 days; for effect of single agent on percentage of CSCs: LX5140110 50 μg/mL or gemcitabine 100 ng/mL
Text: as §1

colorectal cell lines = assay: Inhibition of CSCs in colorectal cell lines; type: cell-based
PA-0143 PDX tumors = assay: In vivo study with PA-0143 PDX tumors; set-up: species or system NSG mice
Description: An in vivo study with PA-0143, was run to determine the ability of LX5140110 to inhibit CSCs in vivo. PA-0143 PDX tumors were passaged by trocar implantation of tumor fragments into 6-8 week old NSG mice (NOD.Cg-Prkdc^scid Il2rg^tmIWjl/SzJ) and allowed to grow to −300 mm^3 at which point they were randomized and treated with subcutaneous injections of either a control IgG1 mAb or LX5140110 at 30 mg/kg twice-weekly for 2 weeks (FIG. 8A). […] Twenty-four hours after the last dose of antibodies, tumors were removed from a subset of the mice and analyzed for the percentage of CSCs.

[3] = test system: PA-0165 pancreatic PDX CSCs; assay: Tumor sphere formation of pancreatic PDX model PA-0165; type: cell-based, human; conditions: compared to STEM0268
Description: STEM0268 inhibits cancer stem cells. […] Briefly, cells were dissociated using 200 units/mL of collagenase IV plated, washed counted and resuspended at 30,000 cells/mL in MSCGM (Lonza) and plated in an ultra-low attachment 6-well plate. Antibodies were added to appropriate wells at 50 μg/mL. Following incubation for 4 days, spheres were harvested, dissociated and replated in a similar manner to generate secondary spheres and assess the ability of CSCs to self-renew. […] Salinomycin (1 μM) served as the positive control in both of these experiments (Gupta P B et al. 2009).

pancreatic cell lines = assay: Inhibition of CSCs in pancreatic cell lines; type: cell-based; conditions: multiple pancreatic cell lines
Text: To further confirm the ability of a LOX1 inhibitor to inhibit CSC sphere formation, a LOX1-specific monoclonal antibody (mAb), LX5140110, which comprises a VL comprising SEQ ID NO: 33 and a VH comprising SEQ ID NO: 4 (see, e.g., Table 1), was compared to STEM0268 for their ability to inhibit sphere formation in the pancreatic PDX models.

[4] = test system: PA-0143 pancreatic PDX CSCs; assay: Tumor sphere formation of pancreatic PDX model PA-0143; type: cell-based, human; conditions: compared to STEM0268
Description: DARPins showing the preferred binding patterns were screened for their ability to inhibit sphere formation using one of the pancreatic PDX models (PA-0143) used for selections. Briefly, following dissociation of the tumor cells they were plated in 96-well ultra-low attachment plates containing MSCGM with 50 ug/mL DARPins. All DARPins were tested in triplicate. After 4 days plates were read and inhibitory molecules were identified as showing inhibitory activity at least 1 standard deviation (SD) from the mean of the untreated and control DARPin-treated wells. A second assay based on expression of EZH2 in CSCs was also run. We have previously shown in pancreatic cancer that CSCs can be identified based on their high expression of EZH2 and trimethylation of histone 3 on lysine 27 (Van Vlerken L et al. 2013 EZH2 is required for breast and pancreatic cancer stem cell maintenance and can be used as a functional cancer stem cell reporter Stem Cells Transl Med 2(1):43-52). Using HPAC cells, the EZH2 assay was performed as previously described with the inclusion of 50 μg/mL DARPin. […]
STEM0268 inhibits cancer stem cells. […] Briefly, cells were dissociated using 200 units/mL of collagenase IV plated, washed counted and resuspended at 30,000 cells/mL in MSCGM (Lonza) and plated in an ultra-low attachment 6-well plate. […]

[5] = 50 μg/mL with 100 ng/mL gemcitabine
[6] = 4 hours pre-incubation before 5 μM DOX

Molecule	viability of cardiomyocytes (Cytivia cardiomyocytes; 5 μM DOX, 24 hours)	increase of calcium concentration (Cytivia cardiomyocytes; 5 μM DOX, 24 hours, compared to untreated controls)	cell numbers (Pan02.13 cells [1])	effect of single agent on percentage of CSCs (Pan02.13 cells [2])	inhibition of CSCs (colorectal cell lines)	tumor growth (PA-0143 PDX tumors; 30 mg/kg subcutaneous twice-weekly for 2 weeks, vs vehicle and control IgG1, P<0.001)	percentage of CSCs in tumors (PA-0143 PDX tumors; 24 hours after last dose, compared to vehicle control)	inhibition of sphere formation (in words) [3]	inhibition of CSCs (pancreatic cell lines)	effect on gemcitabine-induced enrichment of CSCs (Pan02.13 cells [2]; [5])	percentage of CSCs of viable cells (Pan02.13 cells [2]; [5])	effect on DOX-induced accumulation of calcium (Cytivia cardiomyocytes; [6])	effect on DOX-induced decrease of viability (Cytivia cardiomyocytes; [6])	inhibition of sphere formation (in words) [4]
COc1cccc2c1C(=O)c1c(O)c3c(c(O)c1C2=O)C[C@@](O)(C(=O)CO)C[C@@H]3O[C@H]1C[C@H](N)[C@H](O)[C@H](C)O1 [DOX, doxorubicin, reference compound]	decreased viability	approximately 2.5 fold	–	–	–	–	–	–	–	–	–	–	–	–
Nc1ccn([C@@H]2O[C@H](CO)[C@@H](O)C2(F)F)c(=O)n1 [gemcitabine, reference compound]	–	–	significant reduction in cell numbers	enriched for CSCs	–	–	–	–	–	–	–	–	–	–
LX5140110: LOX1-specific monoclonal antibody; VH SEQ ID NO: 4, VL SEQ ID NO: 33 (antibody, V domains shown, LX5140110 Heavy Chain sequence; LX5140110 Light Chain sequence) VH: QVQLVQSGAEVKKPGASVKVSCKVSGYTLTELSMHWVRQAPGKGLEWMGGFDPEDFKYHTHQKFQGRVTMTEDTSTDTAYMELSSLRSEDTAVYYCALVWGTQGKGVRGWDYYYGMDVWGQGTTVTVSS VL: QSVVTQPPSVSGAPGQRVTISCTGSSSNIGAGYDVHWYQQLPGTAPKLLIYGNSNRPSGVPDRFSGSKSGTSASLAITGLQAEDEADYYCQSYDSSLSGWVFGGGTKLTVL	–	–	–	slight reduction of CSCs	able to inhibit CSCs	only slightly reduced tumor growth	significant reduction of CSCs	inhibited sphere formation	able to inhibit CSCs	inhibited this increase	0.62%	able to inhibit the accumulation of calcium	reversed	inhibited sphere formation
